These results are taken from patent publication US20250179210A1 (Merck KGaA, published 2025).

The target in assay [1] is T1, BSA (bovine serum albumin) (bovine, UniProt P02769 25-607).
T1 construct: Negative control; also called unrelated protein
Briefly: ELISA. In general terms: In an ELISA, binding on a coated surface is turned into a signal by an enzyme label.

The target of assay [2] is T2, huCEACAM8-His6 (C583 Novoprotein) (human, UniProt P31997 35-320, limits assumed).
T2 construct: also called human CEACAM8
T2 sequence (looked up): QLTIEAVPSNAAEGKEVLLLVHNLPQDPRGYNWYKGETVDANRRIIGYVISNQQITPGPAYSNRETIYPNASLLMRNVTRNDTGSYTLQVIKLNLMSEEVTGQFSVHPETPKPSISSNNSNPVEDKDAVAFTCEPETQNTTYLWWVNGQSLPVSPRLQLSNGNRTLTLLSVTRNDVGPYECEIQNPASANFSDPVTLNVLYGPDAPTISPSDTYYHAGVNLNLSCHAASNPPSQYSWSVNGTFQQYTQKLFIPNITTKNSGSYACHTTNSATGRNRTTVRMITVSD
Description: ELISA, protein coated at 12 nM.

Assay [3] addresses T3, huCEACAM6-His6 (3934-CM R&D Systems and recombinant protein obtained from Syngene) (human, UniProt P40199 35-320).
T3 construct: Two sources of the protein are named; the result is told once; also called human CEACAM6
T3 sequence (looked up): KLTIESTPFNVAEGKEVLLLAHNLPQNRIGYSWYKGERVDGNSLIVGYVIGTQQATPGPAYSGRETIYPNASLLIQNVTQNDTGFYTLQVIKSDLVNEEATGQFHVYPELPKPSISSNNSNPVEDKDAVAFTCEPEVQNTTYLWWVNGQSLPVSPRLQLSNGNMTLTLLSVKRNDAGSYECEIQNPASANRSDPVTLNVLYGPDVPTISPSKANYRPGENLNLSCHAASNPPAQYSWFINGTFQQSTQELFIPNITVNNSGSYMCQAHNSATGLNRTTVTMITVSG
Description: ELISA, protein coated at 12 nM.

Assay [4] concerns the target T4, huCEACAM7-His6 (C926 Novoprotein) (human, UniProt Q14002 36-242, limits assumed).
T4 construct: also called human CEACAM7
T4 sequence (looked up): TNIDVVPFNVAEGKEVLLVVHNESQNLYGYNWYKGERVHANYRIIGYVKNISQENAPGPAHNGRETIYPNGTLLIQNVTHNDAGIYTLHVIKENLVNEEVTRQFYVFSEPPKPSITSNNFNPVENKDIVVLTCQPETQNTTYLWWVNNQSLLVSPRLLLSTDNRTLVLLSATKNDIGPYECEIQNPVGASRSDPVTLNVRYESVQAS
Description: ELISA, protein coated at 12 nM.

In assay [5] the target is T5, huCEACAM1-His6 (2244-CM R&D Systems) (human, UniProt P13688 35-428).
T5 construct: also called human CEACAM1
T5 sequence (looked up): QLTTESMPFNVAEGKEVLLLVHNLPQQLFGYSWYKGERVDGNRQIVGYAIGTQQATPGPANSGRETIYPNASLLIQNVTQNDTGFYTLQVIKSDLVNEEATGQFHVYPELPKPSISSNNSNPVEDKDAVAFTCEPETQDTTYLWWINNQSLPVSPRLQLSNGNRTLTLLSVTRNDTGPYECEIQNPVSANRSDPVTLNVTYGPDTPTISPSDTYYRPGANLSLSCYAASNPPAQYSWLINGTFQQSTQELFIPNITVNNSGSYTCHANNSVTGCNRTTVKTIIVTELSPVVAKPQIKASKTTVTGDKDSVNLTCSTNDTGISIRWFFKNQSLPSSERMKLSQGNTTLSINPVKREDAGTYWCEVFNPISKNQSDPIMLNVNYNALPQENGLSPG
Description: ELISA, protein coated at 12 nM.

Assay [6] has as its target T6, huCEACAM3-His6 (C449 Novoprotein) (human, UniProt P40198 35-155, limits assumed).
T6 construct: also called human CEACAM3
T6 sequence (looked up): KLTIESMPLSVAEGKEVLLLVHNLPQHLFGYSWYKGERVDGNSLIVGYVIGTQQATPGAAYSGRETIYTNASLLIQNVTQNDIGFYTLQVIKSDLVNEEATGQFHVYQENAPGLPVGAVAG
Description: ELISA, protein coated at 12 nM.

The target in assay [7] is T7, huPSG1-His6 (CC66 Novoprotein) (human, UniProt P11464 35-419, limits assumed).
T7 construct: also called human PSG1
Description: ELISA, protein coated at 12 nM.

Assay [8] addresses T8, human_CEACAM5_ECD-his-biotin (R&D Systems) (human, UniProt P06731 35-685, biotinylated using routine methods (sites not given)).
T8 construct: Bought protein; not shown: His tag and any linker
T8 sequence: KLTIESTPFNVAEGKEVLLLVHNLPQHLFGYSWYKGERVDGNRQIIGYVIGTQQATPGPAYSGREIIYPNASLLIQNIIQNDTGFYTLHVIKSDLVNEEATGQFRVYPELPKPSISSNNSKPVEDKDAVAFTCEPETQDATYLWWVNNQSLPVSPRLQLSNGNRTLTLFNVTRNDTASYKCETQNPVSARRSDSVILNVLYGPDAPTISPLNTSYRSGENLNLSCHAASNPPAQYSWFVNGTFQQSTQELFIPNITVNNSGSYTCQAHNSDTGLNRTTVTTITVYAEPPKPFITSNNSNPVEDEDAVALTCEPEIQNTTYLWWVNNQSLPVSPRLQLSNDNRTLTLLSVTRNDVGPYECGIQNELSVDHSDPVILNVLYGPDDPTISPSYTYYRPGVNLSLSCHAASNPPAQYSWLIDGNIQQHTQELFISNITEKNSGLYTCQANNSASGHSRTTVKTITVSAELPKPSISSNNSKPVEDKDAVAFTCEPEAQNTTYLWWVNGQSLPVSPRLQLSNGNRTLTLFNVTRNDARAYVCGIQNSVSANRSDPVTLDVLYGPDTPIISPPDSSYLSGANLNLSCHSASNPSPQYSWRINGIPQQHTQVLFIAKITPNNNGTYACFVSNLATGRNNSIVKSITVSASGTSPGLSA
Description: BLI (Octet Red), biotinylated antigen captured on streptavidin biosensor, Fab as analyte 6.25-200 nM. In general terms: In BLI a coated tip is dipped into the sample, and binding shifts an interference pattern.

Assay [9] concerns the target T9, huCEACAM5-His6 (R&D Systems #4128-CM) (human, UniProt P06731 35-685).
T9 construct: Bought protein; also called human CEACAM5; not shown: His6 tag
T9 sequence: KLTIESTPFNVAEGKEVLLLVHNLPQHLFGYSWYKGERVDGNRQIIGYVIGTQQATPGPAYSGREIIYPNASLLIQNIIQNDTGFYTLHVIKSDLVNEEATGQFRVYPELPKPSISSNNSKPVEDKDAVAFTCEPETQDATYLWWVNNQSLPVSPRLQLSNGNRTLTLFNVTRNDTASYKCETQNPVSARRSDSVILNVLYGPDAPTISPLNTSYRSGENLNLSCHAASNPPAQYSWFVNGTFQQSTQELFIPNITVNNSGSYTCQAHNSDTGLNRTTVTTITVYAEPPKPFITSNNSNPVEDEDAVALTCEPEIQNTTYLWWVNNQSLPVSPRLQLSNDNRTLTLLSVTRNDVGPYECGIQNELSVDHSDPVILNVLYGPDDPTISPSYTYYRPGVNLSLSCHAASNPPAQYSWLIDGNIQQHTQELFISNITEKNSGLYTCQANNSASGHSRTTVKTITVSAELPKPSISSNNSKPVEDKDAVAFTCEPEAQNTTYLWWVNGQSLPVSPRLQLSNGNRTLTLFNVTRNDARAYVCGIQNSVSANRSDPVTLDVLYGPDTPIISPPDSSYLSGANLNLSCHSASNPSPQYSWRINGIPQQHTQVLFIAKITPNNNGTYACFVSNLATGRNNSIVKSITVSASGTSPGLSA
Briefly: ELISA, protein coated at 12 nM; Fab, not IgG.

T7 sequence (P11464 35-419 limits assumed): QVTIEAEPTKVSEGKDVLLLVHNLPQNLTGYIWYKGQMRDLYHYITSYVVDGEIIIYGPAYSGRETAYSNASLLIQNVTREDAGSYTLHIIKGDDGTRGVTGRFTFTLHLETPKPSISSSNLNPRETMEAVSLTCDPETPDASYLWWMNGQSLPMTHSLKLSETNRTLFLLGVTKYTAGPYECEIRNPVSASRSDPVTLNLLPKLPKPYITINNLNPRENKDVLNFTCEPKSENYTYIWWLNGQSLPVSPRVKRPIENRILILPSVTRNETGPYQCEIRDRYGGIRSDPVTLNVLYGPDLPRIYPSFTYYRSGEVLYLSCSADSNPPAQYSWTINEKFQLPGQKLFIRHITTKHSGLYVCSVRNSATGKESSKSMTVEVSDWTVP
T1 sequence (P02769 25-607 limits assumed): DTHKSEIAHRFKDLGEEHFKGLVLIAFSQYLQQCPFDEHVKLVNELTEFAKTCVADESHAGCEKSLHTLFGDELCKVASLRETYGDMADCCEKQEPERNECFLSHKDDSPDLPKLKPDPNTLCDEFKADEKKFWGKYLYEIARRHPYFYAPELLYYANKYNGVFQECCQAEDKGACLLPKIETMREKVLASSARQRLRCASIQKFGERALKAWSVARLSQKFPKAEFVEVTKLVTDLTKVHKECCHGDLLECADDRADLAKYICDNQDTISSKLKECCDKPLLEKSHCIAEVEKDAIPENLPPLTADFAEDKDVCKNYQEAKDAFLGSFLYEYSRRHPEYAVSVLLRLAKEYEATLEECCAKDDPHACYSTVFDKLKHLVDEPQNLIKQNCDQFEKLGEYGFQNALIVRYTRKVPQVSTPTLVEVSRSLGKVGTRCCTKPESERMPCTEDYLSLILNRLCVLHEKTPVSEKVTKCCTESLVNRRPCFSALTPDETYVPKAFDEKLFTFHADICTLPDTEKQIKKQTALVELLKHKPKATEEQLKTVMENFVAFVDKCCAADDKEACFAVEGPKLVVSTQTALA

B1: Fab of mAb1 (Fab, V domains shown)
VH: EVQLQESGPGLVKPSQTLSLTCTVSDGSVSRGGYYLTWIRQHPGKGLEWIGYIYYSGSTYFNPSLRSRVTMSVDTSKNQFSLKLSSVTAADTAVYYCARGIAVAPFDYWGQGTLVTVSS
VL: EIVLTQSPATLSVSPGERATLSCRTSQSVRSNLAWYQQKPGQAPRLLIYAASTRATGIPARFSGSGSGTEFTLTISSLQSEDFAVYYCQQYTNWPFTFGPGTKVDIK
notes: Fab format of mAb1; also called Fab generated from mAb1
With B1, the binding result in [1] is “no binding (tested: all concentrations tested)”; in [2], “no binding (tested: 1000 nM)”; in assay [3], “no binding (tested: 1000 nM)”; in assay [4], “no binding (tested: 1000 nM)”; in assay [5], “no binding (tested: 1000 nM)”; in assay [6], “no binding (tested: 1000 nM)”. Moreover, in assay [7], the binding result is given as “no binding (tested: 1000 nM)”. Further, the affinity in [8], expressed as Kd, was 6.3 nM. In assay [9], the concentration for a half-maximal effect (EC50) turned out to be 3.04 nM.

By Kd is commonly meant a measure of binding affinity in units of concentration. A high value points to a looser complex. As usually defined, the EC50 is the concentration at which the effect is half-maximal. Read a high EC50 as weaker potency.
